We go through one substance from patent US6133008.

In this series the test system is TfiI-s (N-terminally shortened TfiI) lacks first 12 amino acids; translation presumed to start at TTG codon (Thermus filiformis). The series can be described thus: cleavage_in_vitro. The note with it: cell lysate; lambda DNA substrate.

The substance lambda DNA came in with an activity (units/g wet cells) of 100000.
